Tested on: MS2 coat protein
Experiment: apparent KD of MS2 coat protein; higher = weaker reporter binding
Conditions: Eterna round: R107
How it was run: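 Designed RNA switches, transcribed on-chip from Illumina sequencing clusters, were titrated with SNAP-549-labelled MS2 coat protein from 0.7 or 1.5 nM to 3 µM in twofold steps. The solution was 100 mM Tris-HCl pH 7.5, 80 mM KCl, 4 mM MgCl2, with constant ligand or without it. Apparent KD is the median over each design's normalised cluster binding-curve fits.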

[1] = input ligand: theophylline 20 uM
[2] = input ligand: theophylline 2 mM
[3] = input ligand: tryptophan 2.4 mM

| Sequence | apparent KD of MS2 coat protein (input ligand: arginine 13.2 mM) [nM] | apparent KD of MS2 coat protein [1] [nM] | apparent KD of MS2 coat protein [2] [nM] | apparent KD of MS2 coat protein (input ligand: none) [nM] | apparent KD of MS2 coat protein [3] [nM] |
| --- | --- | --- | --- | --- | --- |
| UCGGGCAUAGCGGCCGCCACUGUUUGGCGUGCGGAUGACGGAACAUGAGGAUCACCCAUGUUGUUUAGGACCGGGCUUGCGUCGU [zyzmullin] | 14 | 17.8 | 14.5 |  |  |
| ACAUGAGGAUCACCCAUGUAAUAAUCAGAAGGAGCGUGGAAUAACACAGGUAGGUCGCUGAUGUUUUGUUAAAAUUAUUCGUGAA [JR_SSArginiA_Sub002] | 11.7 | 16.9 | 12.9 | 13.5 | 14.3 |
| UAUUAUAACCGAAGGAGCGGGAAAGAUGAUUUUUAAUAUUAACAUGAGGAUCACCCAUGUACCCAGGUAGGUCGCGGAUAUUAUU [Default title] | 23.8 | 23.4 | 20.7 | 19.5 | 19 |
| AAAUUAUAGGCGGCCGCCACUAGAGUUAGGCUUAUGUACUGGGUAACAUGAGGAUCACCCAUGUAUAGGACCGGGCCAUAAUAAA [Same State - Tryptophan B (Freestyle 3)] | 46.9 | 76.2 | 63.5 |  |  |
| AAAAUAAAGGCGGCCGCCACUAGAGUUAGGCUUAUGUACUGGGUAACAUGAGGAUCACCCAUGUAUAGGACCGGGCCAUAAUAAA [Same State - Tryptophan B (Freestyle 2)] | 28 | 82.1 | 73 | 57.3 | 66.5 |
| UAAAACAUGAGGAUCACCCAUGUAAUUGAUACCAGAGUGAUGAUCCUCCCUUGGCAGCAAAACGCUGAUUGGAAACAAUCAGCGA [Mat - Same State Theophlline A - Mod of Eli - D25] | 50.1 | 102 |  |  | 46.8 |
| AGCCGUACGUACGGAAACGUACGUACGGCACGAGGACCGGUACGGCCGCCACUCGCCCACAUGAGGAUCACCCAUGUAGUGGGUG [The One Line] | 23.4 | 58.2 | 53.4 | 43.7 | 103 |
| UCAUUUGAGUGAGAUGUAAGGUAUCAUGAUACCAGUAGAUAAUUAUACCCUUGGCAGCAUAACAUGAGGAUCACCCAUGUACAUG [Ac] | 20.1 | 27 |  |  | 19.6 |
| UGUAACAUGAGGAUCACCCAUGUGCACGAUACCAGCUUAUUGGUAGGCCCUUGGCAGCGUAUUCGGAAGAUGUAUAAUAUAUAUC [#26 SameState-TheophyllineA] | 12.3 | 17.4 |  |  | 12.1 |
| GCGGACAUGAGGAUCACCCAUGUAAAUCCUCGAGGACCGGUACGGCCGCCACUCGAACGAGUGGCACGCGAGUGCGCACUCGCGU [aDa] | 21.8 | 38.4 | 29.7 |  |  |
| AAACUGAUCUUCAGGAGUCACUAUAUCUCCCGAGGACCGGUACGGCCGCCACUCGAACGUUUACAUGAGGAUCACCCAUGUGACU [theeternabot_exclusion_MS2_Trp_A_4] | 13.6 | 16.4 | 14.9 |  |  |
| AGCCGCGUUCUUUCUUUCUUUCUAGCGGCACGAGGACCGGUACGGCCGCCACUCGCCCACAUGAGGAUCACCCAUGUAGUGGGUG [The One Ring #2] | 18.5 | 27.7 | 23.9 |  |  |
| CUCCCGUGGUCGGCCGCCACUGGAGGCCUUGCGCGACAUGAGGAUCACCCAUGUGGGCCCGGCGUCAGGACCGGGAUCGCGUGAG [#1 Same State - Tryptophan B Attempt #11 (HarryS)] | 11.5 | 20.2 | 16.2 | 16.1 | 15.6 |
| GAGCGCAGUUUACAACAUACUAACACAGAUACCAGAAAUUUUAUGUUCCCUUGGCAGCUGACAACAUGAGGAUCACCCAUGUGCU [theeternabot_exclusion_MS2_Theo_A_27] | 17.5 | 21.2 |  |  | 15.7 |
| UGUUUGGUGCGCGAGUGUUGGAUAAUUGAUACCAGUGUAGAUGUACGCCCUUGGCAGCGAAUCCGAACAUGAGGAUCACCCAUGU [5.aA] | 36.7 | 45.6 |  |  | 30.2 |
| UGUAUGUGAUUUGAUACCAGACCAACUGGUAAAACAUGAGGAUCACCCAUGUAAACUUGGGUCCCUUGGCAGCAAAUCGCAUACU [SSTheo B #22] | 67.8 | 45.6 |  |  | 82.7 |
| UGUAUGGACUGAAGGAGCGGGUUGAUAACCUGAGGAUCACCCAGGUAAAAGGCGAAAGCCACCCAGGUAGGUCGCAGUCCAUACU | 16.3 | 21.6 | 19.7 | 18.1 | 20 |
| CGAGUAAGAACAAUCGAAUAACGGUUUUCGCGAGGACCGGUACGGCCGCCACUCGUGUGAUAUAACACAUGAGGAUCACCCAUGU [3'end-1] | 25.3 | 37.6 | 34.9 |  |  |
| AAUAACAUGAGGAUCACCCAUGUAAAAGAUACCAGAUGCAUGAUGAUCCCUUGGCAGCUUAACGCUGAUUGAUUACAAUCAGCGA | 36.5 | 128 |  |  | 26.4 |

| Sequence | apparent KD of MS2 coat protein (input ligand: arginine 13.2 mM) [nM] | apparent KD of MS2 coat protein [1] [nM] | apparent KD of MS2 coat protein [2] [nM] | apparent KD of MS2 coat protein (input ligand: none) [nM] | apparent KD of MS2 coat protein [3] [nM] |
| --- | --- | --- | --- | --- | --- |
| AGCCCGGGAGCGGCCGCCACUGGAGGCUUUGCGCGACAUGAGGAUCACCCAUGUGUGCCCGGCGUUAGGACCGGGCUCGCGUGGU [#1 Same State - Tryptophan B Attempt #21 (HarryS)] | 27.8 | 32.5 | 55.3 | 33.4 | 46.9 |
| UGAGUUCGCUGAUGGGCUAAGUCAGGUGAUACCAGCCACUCCCGCGGCCCUUGGCAGCACAUGAGGAUCACCCAUGUAGAACUUG [Vexetela] | 16 | 31.1 | 374 | 18.4 | 20.2 |
| UGAUGGAACGGAAGGAGCGUGUAAGAACAAGAACAUGAGGAUCACCCAUGUAUUAAUUUAACACAGGUAGGUCGCCGAGAUAUUG [11.E] | 19.8 | 23.1 | 17.3 | 14.5 | 13.5 |
| UAACAUGAGGAUCACCCAUGUAUAGUCGAUACCAGCUCAAGGGAGAGCCCUUGGCAGCGACACUGGUAUCCAUGGGUGUGGAUAC [(Ms2)-(Theo)-(T)'-(M)'-(T)''_Design3] | 76.9 | 86.2 |  |  | 69.8 |
| GUUUUCAAGUCGGCCGCCACUGAUACAAUCCUCACCGGUUCACAUGAGGAUCACCCAUGUUCGCUCAGGACCGGGACCUUCUGUG [theeternabot_exclusion_MS2_Trp_B_3] | 77.4 | 141 | 142 |  |  |
| UUCAGCUAGUCGGCCGCCACUACAAGAGGAUCACCCUUGUAAUCCUAACACUGCUUCGGCAGUGGUAGGACCGGGACUAGCUGAG | 15.1 | 17.3 | 13.8 | 14.4 | 20.1 |
| ACAUGAGGAUCACCCAUGUUAUUUACCGAAGGAGCGGGUAUAUACCCAGGUAGGUCGCGGACAACAUGAGGAUCACCCACAUGAG [AstrosSSArgA#21] | 45.5 | 53.4 | 71.4 | 28.5 | 27.8 |
| AGCAGUACAACAGAUACCAGACUUUUCAUGCCUUUAAUUACAUGAGGAUCACCCAUGUUUGUCCCUUGGCAGCUGUUGUACUGCA [JR_ExcTheophyB_Sub011] | 29.5 | 62.8 |  |  | 39.9 |
| GAAUUUUAUUGAAGGAGCGUCGAAAAUGGGUAAACAUGAGGAUCACCCAUGUAAAGGGAACGACAGGUAGGUCGCAAUAGGAUUC [AstromonsSSArgB#28] | 140 | 188 | 247 | 177 | 151 |
| CGGGUUGGACCAGGAAAUGGUCUGACGCGCCGAGGACCGGUACGGCCGCCACUCGCGGGUACAUGAGGAUCACCCAUGUCGGUGG [#1 Same State - Tryptophan A Attempt #12 (HarryS)] | 58.2 | 69.3 | 61.7 | 50.4 | 93 |
| GCACAAGAUGGAAGGAGCGCUGGUAAAAGUCACAUGAGGAUCACCCAUGUGCUCCUUGCCGAGCAGGUAGGUCGCCAUCUUGUGC [SSAB NP+V+V2 #4] | 19.5 | 31.8 | 33.2 | 27.8 | 29.8 |
| UACCCAUGAGUUGGAAAAGCUCAUGGGUAUCGAGGACCGGUACGGCCGCCACUCGGCUGUACAUGAGGAUCACCCAUGUCAGGGU [#1 Same State - Tryptophan A Attempt #24 (HarryS)] | 29.9 | 367 | 721 |  |  |
| UGAGAGACCAGAAGGAGCGACAUGAGGAUCACCCAUGUCUCCCGUUAUGGGAGUUCUUUAGGUCAGGUAGGUCGCUGGUCUCUCA [#1 Exclusion - Arginine B Attempt #8 (Inspired by Omei)] | 59.9 | 120 | 149 | 132 | 87.8 |
| UCUUGAGUUUCGGAUACCAGUGUUGUCGAUACAUGAGGAUCACCCAUGUUAGAGGAUGUACACCCUUGGCAGCCGGCUGUGGCGG [zszmullin] | 13.7 | 21.9 |  |  | 19 |
| GGAAUUAAGACUGAUACCAGUCAAGAUAAUCAUAAGAAUAAACAUGAGGAUCACCCAUGUGACCCUUGGCAGCAGACUAAUACCG [Same State Theophylline B GF 26] | 38.5 | 51.1 |  |  | 39.2 |
| GGGCAAGAGGGAAGGAGCGUCAGCUGAGUCACAUGAGGAUCACCCAUGUCGCACAUAGUGUGACAGGUAGGUCGCCCUCUGCCCU [Zaistiqu] | 74.3 | 158 | 201 | 131 | 133 |
| CUGGACAUGAGGAUCACCCAUGUAAAUCCUCGAGGACCGGUACGGCCGCCACUCGAACGAGUGGCGCGCGAGCGCGCGCUCGCGC [aJa] | 41.4 | 80.3 | 62.5 | 43.3 | 45.5 |
| CCGCACAUGAGGAUCACCCAUGUCAGGGAUACCAGCCCAGACAUGGGCCCUUGGCAGCCCUGUAGCUGACGAAAGUCAGCAGCGG [Omei Theo A SS A v1] | 51.9 | 277 | 57.6 | 31.7 | 44.7 |
| AGACAUGAGGAUCACCCAUGUAGUAUGGAUACCAGAUCCAGAUUUAUCCCUUGGCAGCUGUGGUACAGUGAUGGAUUGCUCCUAG [Exclusion - Theophylline A (Freestyle 9)] | 30.4 | 52 |  |  | 32.7 |
